In patent publication US20130101617A1:

Tests used:
[1] = target: CD4 on CF2.CD4.CCR5 cells (Homo sapiens (Human)) (UniProt P01730)
[2] = target: CCR5 on CF2.CD4.CCR5 cells (Homo sapiens (Human)) (UniProt P51681)

JR-FL SOS gp120/gp41 trimer
infection of CF2.CD4.CCR5 target cells [1]: 100 % of mock | infection of CF2.CD4.CCR5 target cells [2]: 100 % of mock
